Source: article PMC6208348 (Nature Communications, 2018)
Non-standard residues stand in square brackets, D forms with d. No end group written: not given here. pY = N[C@@H](Cc1ccc(OP(=O)(O)O)cc1)C(=O)O

Target: GST-fused Grb2 SH2 domain (human, UniProt P62993 60-152)
Assay: peptide or protein array
Conditions: both partners purified

Sequence of GST-fused Grb2 SH2 domain (P62993 60-152): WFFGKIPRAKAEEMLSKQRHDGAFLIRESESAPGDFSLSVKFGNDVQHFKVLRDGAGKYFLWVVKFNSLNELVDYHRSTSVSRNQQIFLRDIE

B1: Shc1 pTyr317 peptide (DPSpYVNVQNL) on the permutation array (peptide)
peptide: DPS[pY]VNVQNL
binding result: binds
